Data from publication PMC9272907, “Penpulimab, an Fc-Engineered IgG1 Anti-PD-1 Antibody, With Improved Efficacy and Low Incidence of Immune-Related Adverse Events” (Frontiers in Immunology, 2022).

What was measured:
[1] = molecular target: FcγRIa (human) (UniProt P12314); experiment: BLI; ForteBio Octet QKe; FcγRIa immobilised on HIS1K sensor; antibody 50 nM to 3.12 nM in solution; 120 s binding and 120 s dissociation
[2] = molecular target: FcγRIIa_H131 (human) (UniProt P12318); experiment: BLI; ForteBio Octet QKe; FcγRIIa_R131 or FcγRIIa_H131 immobilised on NTA sensor; antibody 200 nM to 12.5 nM in solution; 60 s binding and 60 s dissociation
Sequence of FcγRIIa_H131 (human) (P12318 34-317): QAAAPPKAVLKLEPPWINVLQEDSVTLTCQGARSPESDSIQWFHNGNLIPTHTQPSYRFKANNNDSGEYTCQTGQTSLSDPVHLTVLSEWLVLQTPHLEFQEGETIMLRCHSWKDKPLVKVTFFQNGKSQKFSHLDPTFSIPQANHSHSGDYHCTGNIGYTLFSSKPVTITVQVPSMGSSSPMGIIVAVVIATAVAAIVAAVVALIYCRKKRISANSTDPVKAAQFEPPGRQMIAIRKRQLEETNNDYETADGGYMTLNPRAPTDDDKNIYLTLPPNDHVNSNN

[3] = molecular target: FcγRIIa_R131 (human); experiment: as above
[4] = molecular target: FcγRIIIa_V158 (human); experiment: BLI; ForteBio Octet QKe; FcγRIIIa_F158 or FcγRIIIa_V158 (5 μg/mL) immobilised on HIS1K sensor; antibody 500 nM to 31.25 nM in solution; 60 s binding and 60 s dissociation
[5] = molecular target: T1, human PD-1 extracellular domain fused to human IgG Fc domain (PD-1-hFc) (Homo sapiens, UniProt Q15116); experiment: SPR; Biacore T200; PD-1-hFc immobilised on CM5 chip; antibody 50 nM to 1.56 nM flowed; 180 s binding, 420 s dissociation; details: both partners purified
T1 construct: human programmed cell death protein 1 (PD-1), extracellular domain
T1 sequence (Q15116 25-170): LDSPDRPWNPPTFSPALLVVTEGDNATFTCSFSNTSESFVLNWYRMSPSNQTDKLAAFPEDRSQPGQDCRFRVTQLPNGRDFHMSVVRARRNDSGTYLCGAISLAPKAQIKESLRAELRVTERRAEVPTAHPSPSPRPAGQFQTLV

[6] = molecular target: FcγRIIIa_F158 (human) (UniProt P08637); experiment: BLI; ForteBio Octet QKe; FcγRIIIa_F158 or FcγRIIIa_V158 (5 μg/mL) immobilised on HIS1K sensor; antibody 500 nM to 31.25 nM in solution; 60 s binding and 60 s dissociation
Sequence of FcγRIIIa_F158 (human) (P08637 17-254): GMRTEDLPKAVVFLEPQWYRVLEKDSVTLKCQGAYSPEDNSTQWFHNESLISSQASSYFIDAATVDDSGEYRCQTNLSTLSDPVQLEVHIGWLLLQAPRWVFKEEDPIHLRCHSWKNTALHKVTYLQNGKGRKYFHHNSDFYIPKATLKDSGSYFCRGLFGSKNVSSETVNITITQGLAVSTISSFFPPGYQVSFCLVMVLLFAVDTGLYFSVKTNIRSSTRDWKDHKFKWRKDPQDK

Sequence of FcγRIa (human) (P12314 16-374): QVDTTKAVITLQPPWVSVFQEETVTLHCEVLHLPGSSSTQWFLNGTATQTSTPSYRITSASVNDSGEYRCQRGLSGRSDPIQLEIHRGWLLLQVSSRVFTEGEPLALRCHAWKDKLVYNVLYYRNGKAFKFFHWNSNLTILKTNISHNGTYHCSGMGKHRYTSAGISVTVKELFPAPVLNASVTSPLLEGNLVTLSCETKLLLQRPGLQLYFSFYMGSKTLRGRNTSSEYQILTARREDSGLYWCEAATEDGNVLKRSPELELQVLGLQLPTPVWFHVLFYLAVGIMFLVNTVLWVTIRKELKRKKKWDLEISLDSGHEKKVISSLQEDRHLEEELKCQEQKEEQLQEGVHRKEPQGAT

Kd [1] [nM] | koff [1] [s⁻¹] | kon [1] [M⁻¹ s⁻¹] | Kd [2] [nM] | koff [2] [s⁻¹] | kon [2] [M⁻¹ s⁻¹] | Kd [3] [nM] | koff [3] [s⁻¹] | kon [3] [M⁻¹ s⁻¹] | Kd [4] [nM] | koff [4] [s⁻¹] | kon [4] [M⁻¹ s⁻¹] | Kd [5] [nM] | koff [5] [s⁻¹] | kon [5] [M⁻¹ s⁻¹] | Kd [6] [nM] | koff [6] [s⁻¹] | kon [6] [M⁻¹ s⁻¹] | Binder
8.25 | 0.00478 | 579000 | 50.7 | 0.013 | 257000 | 31.3 | 0.011 | 350000 | 23500 | 0.0837 | 3560 | – | – | – | – | – | – | AK105 (hG4), an IgG4 backbone version of penpulimab (antibody, V domains shown) VH: EVQLVESGGGLVQPGGSLRLSCAASGFAFSSYDMSWVRQAPGKGLDWVATISGGGRYTYYPDSVKGRFTISRDNSKNNLYLQMNSLRAEDTALYYCANRYGEAWFAYWGQGTLVTVSS VL: DIQMTQSPSSMSASVGDRVTFTCRASQDINTYLSWFQQKPGKSPKTLIYRANRLVSGVPSRFSGSGSGQDYTLTISSLQPEDMATYYCLQYDEFPLTFGAGTKLELK
– | – | – | – | – | – | 232 | 0.0938 | 404000 | – | – | – | 0.588 | 9.51e-05 | 162000 | – | – | – | Penpulimab (antibody, V domains shown, heavy chain variable domain of penpulimab; light chain of penpulimab; Human IgG1 anti-PD-1 antibody with Fc mutations; probably a Fab; also called AK105) VH: EVQLVESGGGLVQPGGSLRLSCAASGFAFSSYDMSWVRQAPGKGLDWVATISGGGRYTYYPDSVKGRFTISRDNSKNNLYLQMNSLRAEDTALYYCANRYGEAWFAYWGQGTLVTVSS VL: DIQMTQSPSSMSASVGDRVTFTCRASQDINTYLSWFQQKPGKSPKTLIYRANRLVSGVPSRFSGSGSGQDYTLTISSLQPEDMATYYCLQYDEFPLTFGAGTKLELK
3.35 | 0.00213 | 636000 | 57.4 | 0.0267 | 465000 | 34.6 | 0.0228 | 660000 | 197 | 0.0329 | 167000 | – | – | – | 238 | 0.04 | 168000 | AK105 (hG1WT), a version of penpulimab with wildtype IgG1 backbone (antibody, V domains shown) VH: EVQLVESGGGLVQPGGSLRLSCAASGFAFSSYDMSWVRQAPGKGLDWVATISGGGRYTYYPDSVKGRFTISRDNSKNNLYLQMNSLRAEDTALYYCANRYGEAWFAYWGQGTLVTVSS VL: DIQMTQSPSSMSASVGDRVTFTCRASQDINTYLSWFQQKPGKSPKTLIYRANRLVSGVPSRFSGSGSGQDYTLTISSLQPEDMATYYCLQYDEFPLTFGAGTKLELK
